What was measured:
[1] = Laccase activity, spectrophotometric, SGZ as substrate; assay type: biochemical; conditions: data not shown
Experimental: (§1) Laccase activity was determined spectrophotometrically in a thermostated spectrophotometer (Perkin-Elmer) at 40° C. in 100 mM sodium citrate buffer, pH 4.5 (1 ml). The standard assay was performed at 530 nm, using SGZ as the oxidation substrate (ε530=64,000 M^−1cm^−1). The reaction was started by adding SGZ, from a stock solution in methanol, to a final concentration of 20 μM. […] Oxidation of phenol red (75 μM) was determined by the decrease in absorbance at 432 nm. The activity:pH and activity:temperature relationships were determined by incubating the enzyme:substrate mixtures at different pH values and constant temperature (40° C.), and at different temperatures (15-80° C.) and constant pH (4.5), respectively. Catalytic constants were derived by fitting the experimental data onto the Michaelis-Menten model. Control measurements without enzyme were carried out to correct for possible chemical oxidation of the substrates.

[2] = Laccase activity, spectrophotometric, DMP as substrate; assay type: biochemical; conditions: data not shown
Experimental: as §1

[3] = Laccase activity, veratryl alcohol as substrate; assay type: biochemical; conditions: data not shown
Experimental: as §1

[4] = Laccase activity, guaiacol as substrate; assay type: biochemical; conditions: data not shown
Experimental: as §1

[5] = Oxidative reactions of various compounds (substrate preference, overall kinetics, pH range); assay type: biochemical; conditions: order of oxidized substrates
Experimental: as §1

[6] = pH- and temperature-dependent activity and inactivation profiles; assay type: biochemical; conditions: sodium citrate pH 4.5, 1 mM SGZ or DMP
Experimental: FIG. 2A represents the effect of various pH values on the activity of recombinant purified RL5 laccase. The activity was measured at 40° C. using 1 mM SGZ (syringaldazine) or DMP as substrate. The buffers (100 mM) used were: citrate (pH 3.0-5.5), MES (pH 5.5-7.0), HEPES (pH 7.0-8.0), Tris-HCl (pH 8.0-9.0) and glycine-NaOH (pH 9.0-12). The activity of RL5 for DMP reached an optimum at a broad pH ranging from 3.5-9.0, being optimal at 4.0-5.0; however, it maintained more than 70% activity at pH 3.5 and 9.0 (FIG. 2A).
FIG. 2B represents the pH inactivation of purified RL5 laccase in sodium citrate pH 4.5 (indicated with “∘”) or glycine-NaOH pH 9.0 (indicated with “[…]”) over a time period of 240 min. 100% activity in the purified protein sample equals 7.2 units/mg (measured at 40° C.).
FIG. 2C represents the effect of the temperature on the activity of recombinant purified RL5 laccase. The enzyme activity was assayed at each indicated temperature in sodium citrate pH 4.5 in the presence of 1 mM SGZ or DMP. Activity was monitored at 420 nm. Protein activity increased as the temperature was raised to a maximum at ˜60° C. Therefore, RL5 is stable at high temperatures.
FIG. 2D represents the thermal inactivation of purified RL5 laccase. Purified enzyme was incubated in vials at 60° C. ([…]) or 65° C. (∘). At the indicated times, samples were withdrawn and tested for laccase activity at 40° C. by using SGZ or DMP as a substrate. 100% activity in the purified protein sample equals 17.2 units/mg.
Corresponding experiments were performed with BT4389 and YfiH under conditions as described above for FIGS. 2A to 2D (data not shown). The activity of these enzymes reached an optimum at a temperature of 52° C. (for BT4389) and 44° C. (for YfiH) and the thermal activity maintained for more than 80% at 55° C. (for BT4389) and at 50° C. (for YfiH). The activity of both enzymes reached an optimum at a pH range from 4.5 to 6.0 (for BT4389) and from 5.5 to 8.4 (for YfiH), although 80% activity maintained at pH 4.0 to 7.5 (for BT4389) and 5.0 to 9.0 (for YfiH).
as §1

[7] = substrate: CCn1c(=NN=c2sc3cc(S(=O)(=O)O)ccc3n2CC)sc2cc(S(=O)(=O)O)ccc21; assay: purified protein, by the assay type; conditions: other: 40° C., pH 4.5, 14 nM protein, substrate 0 to 1 mM
[8] = substrate: COc1cc(/C=N/N=C/c2cc(OC)c(O)c(OC)c2)cc(OC)c1O; assay: Steady-state kinetics of RL5 laccase, spectrophotometric oxidation of laccase substrates; assay type: biochemical, bovine rumen metagenome; conditions: other: 40° C., pH 4.5, 14 nM protein, substrate 0 to 1 mM
Experimental: (§2) Protein concentrations were determined according to Bradford (31), with BSA as standard.
(§3) Laccase activity was determined spectrophotometrically in a thermostated spectrophotometer (Perkin-Elmer) at 40° C. in 100 mM sodium citrate buffer, pH 4.5 (1 ml). The standard assay was performed at 530 nm, using SGZ as the oxidation substrate (ε530=64,000 M^−1cm^−1). The reaction was started by adding SGZ, from a stock solution in methanol, to a final concentration of 20 μM. […] Catalytic constants were derived by fitting the experimental data onto the Michaelis-Menten model. Control measurements without enzyme were carried out to correct for possible chemical oxidation of the substrates.

[9] = substrate: COc1cccc(OC)c1O; assay: as above; assay type: biochemical, bovine rumen metagenome; conditions: other: 40° C., pH 4.5, 14 nM protein, substrate 0 to 1 mM
Experimental: as §2, §3

B1: YfiH: DUF152 domain containing hypothetical protein from Escherichia coli, Gene Bank AAG57706, identified as laccase (FIG. 13) (protein, listed as Escherichia coli)
chain: MSKLIVPQWPLPKGVAACSSTRIGGVSLPPYDSLNLGAHCGDNPDHVEENRKRLFAAGNLPSKPVWLEQVHGKDVLNLTGEPYASKRADASYSNTPGRVCAVMTADCLPVLFCNRAGTEVAAAHAGWRGLCAGVLEETVSCFADNPENILAWLGPAIGPRAFEVGAEVREAFMAVDAEASTAFIQHGDKYLADIYQLARQRLANVGVEQIFGGDRCTYTENETFFSYRRDKTTGRMASFIWLI
modifications: Description of sequence amino acid sequence of protein YfiH with unknown function DUF152 from Escherichia coli (Gene Bank accession number AAG57706) (see Fig. 13)
- oxidation activity [1]: 5.6 units/g protein
- oxidation activity [2]: 4 units/g protein
- oxidation activity [3]: 2.1 units/g protein
- oxidation activity [4]: 0.5 units/g protein
- substrate preference [5]: SGZ>DMP>>veratryl alcohol>>guaiacol
- temperature optimum of activity [6]: 44 °C

B2: RL5 laccase (bovine rumen metagenome), wild type, FIG. 11 (unidentified prokaryotic organism) (protein)
chain: MIELEKLDFAKSVEGVEAFSTTRGQVDGRNAYSGVNLCDYVGDDALRVLDARLTLAMQLGVDLDDLVMPRQTHSCRVAVIDERFRALDIDEQEAALEGVDALVTRLQGIVIGVNTADCVPIVLVDSQAGIVAVSHAGWRGTVGRIAKAVVEEMCRQGATVDRIQAAMGPSICQDCFEVGDEVVEAFKKAHFNLNDIVVRNPATGKAHIDLRAANRAVLVAAGVPAANIVESQHCSRCEHTSFFSARRLGINSGRTFTGIYRK
- Km [7]: 26.2 µM
- kcat [7]: 18.05 s⁻¹
- Km [8]: 0.43 µM
- kcat [8]: 663.45 s⁻¹
- Km [9]: 0.45 µM
- kcat [9]: 1174 s⁻¹
